Results from the supplement of paper PMC6757056.
± gives the standard deviation of the averaged measurements.

B1: library; a variant is named by its letters at N, in order (parent)
chain: GCUGUCACCGGUGUAUUACCCUAGUGGUCGACCGGUCUGAUGAGUCUNNNNNNAGACGAAACAGC

Experiments:
hypoxanthine [1] = variants of: B1; assay: normalized RNA/DNA level with ligand (relative to sTRSVctl = 100) (log10 (% of sTRSVctl)); ligand: hypoxanthine (xanthine aptamer); higher = less ribozyme self-cleavage, higher mRNA level; details: ligand concentration (+) RNA-Seq: 5 mM, HEK293T, reporter: mCherry (pCS4076), ligand present: yes
Outline: (§1)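 RNA level was computed as RNA reads over DNA reads divided by a spiked-in non-cleaving sequence or by the top sequences, then scaled and log-transformed. Scaling was ×100 with log10, the top group was 25 sequences, and the threshold was ≥100 DNA reads. The reads came from HEK293T cells transfected at 4 µg per 6-well well with ribozyme switch library plasmids (mCherry, or eGFP in some ligand experiments). Total RNA was extracted with EDTA 72 h after transfection, with any ligand added 1 h before it.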

hypoxanthine [2] = variants of: B1; assay: normalized RNA/DNA level without ligand (relative to sTRSVctl = 100) (log10 (% of sTRSVctl)); ligand: hypoxanthine (xanthine aptamer); higher = less ribozyme self-cleavage, higher mRNA level; details: HEK293T, reporter: mCherry (pCS4076), ligand present: no
Outline: as §1

Variant | normalized RNA/DNA level with ligand (log10) (hypoxanthine [1]) | normalized RNA/DNA level without ligand (log10) (hypoxanthine [2])
GCUGUCACCGGUGUAUUACCCUAGUGGUCGACCGGUCUGAUGAGUCUGGAUAUAGACGAAACAGC [GGAUAU] | 1.9 ± 0.023 | 1.78 ± 0.028
GCUGUCACCGGUGUAUUACCCUAGUGGUCGACCGGUCUGAUGAGUCUGGAUUAAGACGAAACAGC [GGAUUA] | 1.94 ± 0.04 | 1.83 ± 0.057
GCUGUCACCGGUGUAUUACCCUAGUGGUCGACCGGUCUGAUGAGUCUGGAUUUAGACGAAACAGC [GGAUUU] | 1.99 ± 0.024 | 1.89 ± 0.02
GCUGUCACCGGUGUAUUACCCUAGUGGUCGACCGGUCUGAUGAGUCUGGAUUCAGACGAAACAGC [GGAUUC] | 1.98 ± 0.041 | 1.94 ± 0.0086
GCUGUCACCGGUGUAUUACCCUAGUGGUCGACCGGUCUGAUGAGUCUCGAUGUAGACGAAACAGC [CGAUGU] | 1.98 ± 0.04 | 1.878 ± 0.016
GCUGUCACCGGUGUAUUACCCUAGUGGUCGACCGGUCUGAUGAGUCUCGAUGAAGACGAAACAGC [CGAUGA] | 1.93 ± 0.018 | 1.79 ± 0.057
GCUGUCACCGGUGUAUUACCCUAGUGGUCGACCGGUCUGAUGAGUCUCGAUGCAGACGAAACAGC [CGAUGC] | 1.9 ± 0.07 | 1.829 ± 0.0038
GCUGUCACCGGUGUAUUACCCUAGUGGUCGACCGGUCUGAUGAGUCUGGAUCUAGACGAAACAGC [GGAUCU] | 1.95 ± 0.051 | 1.92 ± 0.023
GCUGUCACCGGUGUAUUACCCUAGUGGUCGACCGGUCUGAUGAGUCUGGAUCAAGACGAAACAGC [GGAUCA] | 1.96 ± 0.04 | 1.84 ± 0.037
GCUGUCACCGGUGUAUUACCCUAGUGGUCGACCGGUCUGAUGAGUCUGGAUCCAGACGAAACAGC [GGAUCC] | 1.96 ± 0.049 | 1.95 ± 0.018
GCUGUCACCGGUGUAUUACCCUAGUGGUCGACCGGUCUGAUGAGUCUCGAUUGAGACGAAACAGC [CGAUUG] | 1.92 ± 0.045 | 1.922 ± 0.0055
GCUGUCACCGGUGUAUUACCCUAGUGGUCGACCGGUCUGAUGAGUCUAGAGUUAGACGAAACAGC [AGAGUU] | 1.905 ± 0.0059 | 1.8267 ± 0.0011
GCUGUCACCGGUGUAUUACCCUAGUGGUCGACCGGUCUGAUGAGUCUAGAGUGAGACGAAACAGC [AGAGUG] | 1.82 ± 0.047 | 1.331 ± 0.0048
GCUGUCACCGGUGUAUUACCCUAGUGGUCGACCGGUCUGAUGAGUCUAGAUUAAGACGAAACAGC [AGAUUA] | 1.91 ± 0.024 | 1.8 ± 0.031
GCUGUCACCGGUGUAUUACCCUAGUGGUCGACCGGUCUGAUGAGUCUAGAUUUAGACGAAACAGC [AGAUUU] | 1.92 ± 0.021 | 1.893 ± 0.011
GCUGUCACCGGUGUAUUACCCUAGUGGUCGACCGGUCUGAUGAGUCUAGAUUGAGACGAAACAGC [AGAUUG] | 1.88 ± 0.042 | 1.47 ± 0.022
GCUGUCACCGGUGUAUUACCCUAGUGGUCGACCGGUCUGAUGAGUCUUGAUUAAGACGAAACAGC [UGAUUA] | 1.91 ± 0.087 | 1.88 ± 0.049
GCUGUCACCGGUGUAUUACCCUAGUGGUCGACCGGUCUGAUGAGUCUUGAUUGAGACGAAACAGC [UGAUUG] | 1.97 ± 0.043 | 1.763 ± 0.0098
GCUGUCACCGGUGUAUUACCCUAGUGGUCGACCGGUCUGAUGAGUCUCGAUCGAGACGAAACAGC [CGAUCG] | 1.94 ± 0.027 | 1.84 ± 0.038
GCUGUCACCGGUGUAUUACCCUAGUGGUCGACCGGUCUGAUGAGUCUCGAUCAAGACGAAACAGC [CGAUCA] | 1.9299 ± 0.00072 | 1.7 ± 0.048
GCUGUCACCGGUGUAUUACCCUAGUGGUCGACCGGUCUGAUGAGUCUCGAUCUAGACGAAACAGC [CGAUCU] | 1.95 ± 0.046 | 1.877 ± 0.0033

Variant | normalized RNA/DNA level with ligand (log10) (hypoxanthine [1]) | normalized RNA/DNA level without ligand (log10) (hypoxanthine [2])
GCUGUCACCGGUGUAUUACCCUAGUGGUCGACCGGUCUGAUGAGUCUCGAUCCAGACGAAACAGC [CGAUCC] | 2.013 ± 0.0062 | 1.898 ± 0.0043
GCUGUCACCGGUGUAUUACCCUAGUGGUCGACCGGUCUGAUGAGUCUCGAUAUAGACGAAACAGC [CGAUAU] | 1.911 ± 0.0083 | 1.74 ± 0.024
GCUGUCACCGGUGUAUUACCCUAGUGGUCGACCGGUCUGAUGAGUCUAGAUAUAGACGAAACAGC [AGAUAU] | 1.88 ± 0.032 | 1.798 ± 0.015
GCUGUCACCGGUGUAUUACCCUAGUGGUCGACCGGUCUGAUGAGUCUAGAUAGAGACGAAACAGC [AGAUAG] | 1.82 ± 0.025 | 1.441 ± 0.0087
GCUGUCACCGGUGUAUUACCCUAGUGGUCGACCGGUCUGAUGAGUCUUGAUGUAGACGAAACAGC [UGAUGU] | 1.91 ± 0.02 | 1.67 ± 0.022
GCUGUCACCGGUGUAUUACCCUAGUGGUCGACCGGUCUGAUGAGUCUUGAUGGAGACGAAACAGC [UGAUGG] | 1.92 ± 0.062 | 1.51 ± 0.064
GCUGUCACCGGUGUAUUACCCUAGUGGUCGACCGGUCUGAUGAGUCUUGAUGCAGACGAAACAGC [UGAUGC] | 1.95 ± 0.059 | 1.852 ± 0.014
GCUGUCACCGGUGUAUUACCCUAGUGGUCGACCGGUCUGAUGAGUCUGGAUGUAGACGAAACAGC [GGAUGU] | 1.93 ± 0.033 | 1.746 ± 0.0056
GCUGUCACCGGUGUAUUACCCUAGUGGUCGACCGGUCUGAUGAGUCUAGAUCCAGACGAAACAGC [AGAUCC] | 1.936 ± 0.0091 | 1.874 ± 0.0045
GCUGUCACCGGUGUAUUACCCUAGUGGUCGACCGGUCUGAUGAGUCUAGAUCUAGACGAAACAGC [AGAUCU] | 1.94 ± 0.051 | 1.829 ± 0.015
GCUGUCACCGGUGUAUUACCCUAGUGGUCGACCGGUCUGAUGAGUCUAGAUCAAGACGAAACAGC [AGAUCA] | 1.97 ± 0.049 | 1.81 ± 0.045
GCUGUCACCGGUGUAUUACCCUAGUGGUCGACCGGUCUGAUGAGUCUAGAUCGAGACGAAACAGC [AGAUCG] | 1.89 ± 0.031 | 1.55 ± 0.048
GCUGUCACCGGUGUAUUACCCUAGUGGUCGACCGGUCUGAUGAGUCUGGAGUUAGACGAAACAGC [GGAGUU] | 1.97 ± 0.038 | 1.881 ± 0.0061
GCUGUCACCGGUGUAUUACCCUAGUGGUCGACCGGUCUGAUGAGUCUUGAUCUAGACGAAACAGC [UGAUCU] | 2.022 ± 0.0077 | 1.939 ± 0.013
GCUGUCACCGGUGUAUUACCCUAGUGGUCGACCGGUCUGAUGAGUCUUGAUCAAGACGAAACAGC [UGAUCA] | 1.98 ± 0.031 | 1.899 ± 0.0037
GCUGUCACCGGUGUAUUACCCUAGUGGUCGACCGGUCUGAUGAGUCUUGAUCCAGACGAAACAGC [UGAUCC] | 1.91 ± 0.087 | 1.921 ± 0.012
GCUGUCACCGGUGUAUUACCCUAGUGGUCGACCGGUCUGAUGAGUCUUGAGUUAGACGAAACAGC [UGAGUU] | 1.92 ± 0.039 | 1.85 ± 0.042
GCUGUCACCGGUGUAUUACCCUAGUGGUCGACCGGUCUGAUGAGUCUUGAUAGAGACGAAACAGC [UGAUAG] | 1.88 ± 0.04 | 1.7 ± 0.041
GCUGUCACCGGUGUAUUACCCUAGUGGUCGACCGGUCUGAUGAGUCUUGAUACAGACGAAACAGC [UGAUAC] | 1.926 ± 0.0041 | 1.848 ± 0.011
GCUGUCACCGGUGUAUUACCCUAGUGGUCGACCGGUCUGAUGAGUCUUGAUAAAGACGAAACAGC [UGAUAA] | 1.91 ± 0.028 | 1.8144 ± 0.0015
GCUGUCACCGGUGUAUUACCCUAGUGGUCGACCGGUCUGAUGAGUCUAGAUGCAGACGAAACAGC [AGAUGC] | 1.96 ± 0.07 | 1.72 ± 0.072
